Measurements published in paper PMC4815241 (Protein Science : A Publication of the Protein Society, 2015).
Read-outs that look alike come from different tables or passages of the source.

Key:
[1] = target: human eIF4GII residues 551–745 (human) (UniProt O43432); experiment: ITC; MicroCal ITC microcalorimeter; the ligand titrated into the protein in the cell (cell about 10× lower than titrant); 25°C; 20 mM Hepes/KOH pH 7.4, 150 mM KCl, 1 mM EDTA; three experiments
[2] = target: HRV2 2A^proC106S (human rhinovirus 2); experiment: SEC-MALS; Superdex 200 10/300 in assay buffer, miniDAWN light scattering instrument, 100 µg sample
[3] = target: recombinant full-length murine eIF4E (murine) (UniProt P63073); experiment: SEC-MALS; static light scattering on eIF4E/2A^proC106S complexes formed overnight
Sequence of recombinant full-length murine eIF4E (murine) (P63073 whole entry): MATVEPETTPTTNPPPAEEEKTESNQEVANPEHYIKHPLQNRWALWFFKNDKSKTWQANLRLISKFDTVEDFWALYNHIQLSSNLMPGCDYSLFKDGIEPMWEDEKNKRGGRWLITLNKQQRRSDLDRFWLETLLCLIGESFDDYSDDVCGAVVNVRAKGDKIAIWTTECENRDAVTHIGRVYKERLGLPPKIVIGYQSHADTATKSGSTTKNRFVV

[4] = target: recombinant full-length murine eIF4E (murine) (UniProt P63073); experiment: ITC; MicroCal ITC microcalorimeter; the ligand titrated into the protein in the cell (cell about 10× lower than titrant); 25°C; 20 mM Hepes/KOH pH 7.4, 150 mM KCl, 1 mM EDTA; three experiments
[5] = target: recombinant full-length murine eIF4E (murine) (UniProt P63073); experiment: as above; remark: listed apart in the source
[6] = target: eIF4GII_(551–745)/eIF4E complex (human | murine) (UniProt O43432); experiment: as above
[7] = target: human eIF4GII residues 551–745 (human) (UniProt O43432); experiment: as above; remark: listed apart in the source
[8] = target: eIF4GII_(551–745)/eIF4E complex (human | murine) (UniProt O43432); experiment: SEC-MALS; Superdex 200 10/300 in assay buffer, miniDAWN light scattering instrument, 100 µg sample
[9] = target: recombinant full-length murine eIF4E (murine) (UniProt P63073); experiment: SEC-MALS; static light scattering after 10 min of complex formation
[10] = target: T1, recombinant full-length murine eIF4E (murine, UniProt P63073 1-217); experiment: ITC; MicroCal ITC microcalorimeter; the ligand titrated into the protein in the cell (cell about 10× lower than titrant); 25°C; 20 mM Hepes/KOH pH 7.4, 150 mM KCl, 1 mM EDTA; three experiments; conditions: both partners purified
T1 sequence (P63073 whole entry): as above

[11] = target: T1, recombinant full-length murine eIF4E; experiment: SEC-MALS; Superdex 200 10/300 in assay buffer, miniDAWN light scattering instrument, 100 µg sample; conditions: both partners purified

Question: Which Kd [1] does the source give for HRV2 2A^proC106S (enzyme) here?
Answer: 86 µM

Question: What about the stoichiometry N [2] of the same molecule?
Answer: 2

Question: And the stoichiometry N [3]?
Answer: 1

Question: What about the Kd [4] of the same molecule?
Answer: 8 µM

Question: And the Kd [5]?
Answer: 12 µM

Question: And the Kd [6]?
Answer: 5.1 µM

Question: What about the Kd [7] of the same molecule?
Answer: 75 µM

Question: “CVB4 2A^proC110A with a N-terminal extension of eight VP1 residues (enzyme)” was tested. Which stoichiometry N [8] did it give?
Answer: 1

Question: What about the Kd [6] of the same molecule?
Answer: 19 µM

Question: And the Kd [7]?
Answer: 19 µM

Question: Which stoichiometry N [9] does the source give for “HRV2 2A^pro bearing the mutations C106S and C138S (enzyme)” here?
Answer: 1

B1: human eIF4GII residues 551–745 (domain or fragment, UniProt O43432 551-745, looked up)
chain: GFHPERDPSDLKKVKAVEENGEEAEPVRNGAESVSEGEGIDANSGSTDSSGDGVTFPFKPESWKPTDTEGKKQYDREFLLDFQFMPACIQKPEGLPPISDVVLDKINQPKLPMRTLDPRILPRGPDFTPAFADFGRQTPGGRGVPLLNVGSRRSQPGQRREPRKIITVSVKEDVHLKKAENAWKPSQKRDSQADD
Question: Which results are given for B1?
Answer: Kd [10]: 0.042 µM; stoichiometry N [11]: 1
